PMC8651296

How the values were obtained:
[1] = target: ctSTIM1 cysteine mutant at position 337 (C437S background) (human) (UniProt Q13586); assay: FRET or BRET; single-molecule FRET (TIRF), symmetric inter-subunit: one cysteine mutant labelled with Alexa Fluor 555 and 647 mixed 1:1; single ctSTIM1 dimers in liposomes tethered by biotin-neutravidin; 20/150 TBS pH 7.4, room temperature
[2] = target: ctSTIM1 cysteine mutant at position 312 (C437S background) (human) (UniProt Q13586); assay: as above

Substance	inter-subunit FRET efficiency [1]	inter-subunit FRET efficiency [2]
ctSTIM1 cysteine mutant at position 337 (C437S background) (from UniProt Q13586 233-685) (domain or fragment)	0.9	
ctSTIM1 cysteine mutant at position 312 (C437S background) (from UniProt Q13586 233-685) (domain or fragment)		0.9
